Data published in US20180051053A1.

Molecular target: Protein G (Protein G UltraLink resin, Pierce) (group G streptococci) (UniProt P19909)
Experiment: depletion of 100 µg IgG by Protein G resin beads (10 µL suspension); supernatant read by SDS-PAGE band pixels

- remaining antibody amount (unbound IgG left in supernatant): 3%
Substance: IgG (antibody)
